US20250376507A1, “NOVEL TUMOR ANTIGEN-TARGETING ANTICANCER AGENT” (INDUSTRY FOUNDATION OF CHONNAM NATIONAL UNIVERSITY, priority 2022, published 2025)
Several values for one entry are separate records, joined by “and”; a condition that tells them apart may be missing. Equal values may be shown once.

Assays:
MC-38 tumor = experiment: In vivo anti-cancer efficacy in MC-38 tumor-bearing mice; set-up: species or system C57BL/6 mice; conditions: summary statement
Description: (§1) CT-26 and MC-38 tumor cells (106 in 100 μL PBS) were implanted subcutaneously into the right flanks of 6-week-old BALB/c and C57BL/6 female mice (Orient company, Korea), respectively. When the tumors reached about 100 mm^3, the tumor-bearing mice were injected intraperitoneally with anticancer agents (15 mg/kg GEM, 10 mg/kg DOX or 2 mg/kg MTX) three times every 2 days. Simultaneously, the mice were injected intravenously with the PASylated recombinant proteins of the present invention five times every 2 days. The length (L), width (W), and height (H) of each tumor were recorded every 3 days using a digital caliper, and the tumor volume (mm3) was calculated using the following formula (L×H×W)/2. Mice were euthanized when tumors were ˜1,500 mm^3 and all animal experiments were performed in accordance with the general principles and procedures outlined in the National Institutes of Health Guidelines, and all protocols were approved by the Chonnam National University Animal Care and Use Committee (permit number: HCRL 16-001).

CT-26 tumor = experiment: In vivo anti-cancer efficacy in CT-26 tumor-bearing mice; conditions: for tumor suppression in mice treated with GEM: combination with GEM (non-ICD-inducing); for tumor growth in mice treated with ICD-inducing drugs: summary statement, doxorubicin and mitozantrone
Description: as §1

ecto-CRT on MC-38 cells [1] = target: T1, ecto-CRT on MC-38 cells (Mus musculus, UniProt P14211); experiment: Confocal immunofluorescence staining of MC-38 cells; assay type: cell-based; set-up: endogenous in cells; host or cells: CT-26 and MC-38 mouse colon cancer cells (in culture, or CT-26 tumors in mice)
T1 sequence (P14211 18-416): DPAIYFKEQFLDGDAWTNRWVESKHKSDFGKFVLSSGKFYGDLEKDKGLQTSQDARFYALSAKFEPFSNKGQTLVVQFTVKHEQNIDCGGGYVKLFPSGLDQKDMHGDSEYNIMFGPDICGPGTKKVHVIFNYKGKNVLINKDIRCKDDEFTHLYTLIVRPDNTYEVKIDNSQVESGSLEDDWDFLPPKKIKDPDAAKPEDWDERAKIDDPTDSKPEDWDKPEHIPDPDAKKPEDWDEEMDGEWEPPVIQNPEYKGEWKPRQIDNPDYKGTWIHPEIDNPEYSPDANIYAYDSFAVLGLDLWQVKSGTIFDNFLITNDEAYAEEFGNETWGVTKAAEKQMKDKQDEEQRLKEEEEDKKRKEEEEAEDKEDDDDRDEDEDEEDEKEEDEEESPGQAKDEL
Description: (§2) PASylated CRT-targeted L-ASNases bound to ecto-CRT on cells were visualized by confocal immunofluorescence microscopy with reference to the prior art (Y. Zhang, et al., Cancers, 13(11), 2801, 2021). After overnight incubation in a cover-glass, CT-26 and MC-38 cells (104) were treated with anticancer agents for 4 h at 37° C. The cells were then fixed with 1% PFA for 15 min, stained with 100 nM PASylated recombinant proteins for 1 h on ice, and treated with anti-His tagged monobodies (diluted to 1:1000) and Alexa Fluor 488-conjugated secondary antibody for 1 h (5 μg/mL). Cell membranes were stained with Alexa Fluor 555-conjugated wheat germ agglutinin (WGA) (diluted to 1:5000). Between each step, samples were washed with cold T-PBS. Finally, the cells were incubated with 4′,6-diamidino-2-phenylindole (DAPI) (Thermo Fisher Scientific, USA) to stain the nuclei. Immunofluorescence signals were imaged using an LSM510 confocal microscope (ZEISS, Jena, Germany) and data were analyzed with ZEN-LSM imaging software (ZEISS, Jena, Germany).

ecto-CRT on CT-26 cells [2] = target: T2, ecto-CRT on CT-26 cells (Mus musculus, UniProt P14211); experiment: Flow cytometry binding to anticancer-agent-treated CT-26 cells; assay type: cell-based; conditions: for binding to cells: 100 nM protein; for binding after pretreatment with anti-CRT antibodies: CT-26 cells treated with DOX or MTX
T2 sequence (P14211 18-416): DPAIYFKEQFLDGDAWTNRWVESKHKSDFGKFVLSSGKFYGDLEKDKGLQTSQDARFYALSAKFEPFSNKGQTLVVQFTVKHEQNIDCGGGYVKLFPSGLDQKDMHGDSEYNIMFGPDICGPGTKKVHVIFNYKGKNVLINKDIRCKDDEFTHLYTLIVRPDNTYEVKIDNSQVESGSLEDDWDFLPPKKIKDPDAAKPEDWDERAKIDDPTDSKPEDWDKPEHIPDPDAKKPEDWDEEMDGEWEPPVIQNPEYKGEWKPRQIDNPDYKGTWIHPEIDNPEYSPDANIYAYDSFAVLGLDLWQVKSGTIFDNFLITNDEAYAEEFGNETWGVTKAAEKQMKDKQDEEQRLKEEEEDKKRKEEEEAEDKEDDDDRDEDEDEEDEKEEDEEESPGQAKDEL
Description: (§3) Cells were cultured at 37° C. in DMEM medium supplemented with 10% FBS and 100 U of streptomycin/penicillin in an atmosphere of 5% CO2. Cells were treated with each anticancer drug [3 μM methotrexate (MTX), 25 μM […] (DOX), or 15 μM gemcitabine (GEM)] to induce apoptosis (Y. Zhang, et al., Cancers, 13 (11), 2801, 2021). After 4 h of incubation, the cells were scraped and detached from the plate. The cells (10^5) were fixed with 1% PFA for 15 min and then treated with 100 nM of PASylated recombinant proteins for 1 h on ice. After washing five times with cold PBS buffer containing 0.1% Tween-20 (T-PBS), the cells were incubated with anti-His tagged monobodies (diluted to 1:1000) for 1 h and then treated with Alexa Fluor 488-conjugated secondary antibodies (5 μg/mL) for 1 h. Fluorescence signals were detected by FACSCanto II Flow Cytometer (BD Biosciences, USA). For blocking experiments, cells were first incubated with anticancer agents for 4 h and fixed with 1% PFA. Cells were then incubated with anti-CRT antibodies (diluted to1: 400) for 1 h to mask ecto-CRT. Cells were stained with PASylated recombinant proteins and followed the same procedure as described above.

CT-26 cells = experiment: Cell viability (CCK-8) of CT-26 cells; assay type: cell-based, mouse; conditions: 1 IU/mL; for cell viability: 24 h, no anticancer pretreatment; for reduction of viability of cells pretreated with DOX and MTX, higher extent: 24 h after DOX or MTX pretreatment; for reduction in cell viability in cells pretreated with GEM: 24 h after GEM pretreatment
Description: CT-26 and MC-38 cells (10^4 cells per well) were seeded into three wells of a 96-well plate and incubated at 37° C. The next day, the culture medium was replaced with 100 μL of fresh medium containing the above concentrations of anticancer agents. After incubation at 37° C. for 4 h, the culture medium was removed and the cells were washed three times with PBS. […] Finally, CCK-8 reagent (10 μL/well) was added for 3 h at 37° C., and the amount of color in each sample was measured at OD450.

ecto-CRT on CT-26 cells [3] = target: T2, ecto-CRT on CT-26 cells; experiment: Confocal immunofluorescence staining of CT-26 cells; assay type: cell-based; set-up: endogenous in cells; host or cells: CT-26 and MC-38 mouse colon cancer cells (in culture, or CT-26 tumors in mice)
Description: as §2

ecto-CRT on MC-38 cells [4] = target: T1, ecto-CRT on MC-38 cells; experiment: Flow cytometry binding to anticancer-agent-treated MC-38 cells; assay type: cell-based; set-up: endogenous in cells; host or cells: MC-38 mouse colon cancer cells (in culture); conditions: for binding to cells: 100 nM protein; for binding after pretreatment with anti-CRT antibodies: MC-38 cells treated with DOX or MTX
Description: as §3

[5] = MC-38 cells treated with DOX or MTX
[6] = CT-26 cells treated with DOX and MTX
[7] = CT-26 cells with GEM or PBS treatment
[8] = CT-26 cells treated with DOX or MTX
[9] = MC-38 cells treated with DOX and MTX
[10] = MC-38 cells with GEM or PBS treatment

B1: CRT4LP: PASylated L-ASNase fused with CRT-targeting CRT4 monobody at N-terminus and PAS200 tag plus His6 tag at C-terminus (protein)
chain: MASVSDVPRDLEVVAATPTSLLISWGQPMYGQPMYYYRITYGETGGNSPVQEFTVPGSKSTATISGLKPGVDYTITVYAVTKLGFFKRPISINYRTSGGGGSGGGGSEFLPNITILATGGTIAGGGDSATKSNYTAGKVGVENLVNAVPQLKDIANVKGEQVVNIGSQDMNDDVWLTLAKKINTDCDKTDGFVITHGTDTMEETAYFLDLTVKCDKPVVMVGAMRPSTSMSADGPFNLYNAVVTAADKASANRGVLVVMNDTVLDGRDVTKTNTTDVATFKSVNYGPLGYIHNGKIDYQRTPARKHTSDTPFDVSKLNELPKVGIVYNYANASDLPAKALVDAGYDGIVSAGVGNGNLYKTVFDTLATAAKNGTAVVRSSRVPTGATTQDVEVDDAKYGFVASGTLNPQKARVLLQLALTQTKDPQQIQQIFNQYGSSGGGGSGGGGSASPAAPAPASPAAPAPSAPAASPAAPAPASPAAPAPSAPAASPAAPAPASPAAPAPSAPAASPAAPAPASPAAPAPSAPAASPAAPAPASPAAPAPSAPAASPAAPAPASPAAPAPSAPAASPAAPAPASPAAPAPSAPAASPAAPAPASPAAPAPSAPAASPAAPAPASPAAPAPSAPAASPAAPAPASPAAPAPSAPAAGSHHHHHH
tumor growth in mice treated with ICD-inducing drugs (MC-38 tumor): significantly inhibiting tumor growth | tumor suppression in mice treated with GEM (CT-26 tumor): not and did not enhance tumor suppression | tumor growth in mice treated with ICD-inducing drugs (CT-26 tumor): significantly inhibiting tumor growth | immunofluorescence staining, binding to cells (ecto-CRT on MC-38 cells [1]; [5]): only bound | immunofluorescence staining, binding to cells (ecto-CRT on MC-38 cells [1]; MC-38 cells treated with GEM): not | binding to cells (ecto-CRT on CT-26 cells [2]; [6]): efficiently bound | binding after pretreatment with anti-CRT antibodies (ecto-CRT on CT-26 cells [2]): significantly inhibited | binding to cells (ecto-CRT on CT-26 cells [2]; [7]): not | cell viability (CT-26 cells): barely affected | reduction of viability of cells pretreated with DOX and MTX, higher extent (CT-26 cells): 2 fold | reduction in cell viability in cells pretreated with GEM (CT-26 cells): not observed | immunofluorescence staining, binding to cells (ecto-CRT on CT-26 cells [3]; [8]): only bound | immunofluorescence staining, binding to cells (ecto-CRT on CT-26 cells [3]; CT-26 cells treated with GEM): not | binding to cells (ecto-CRT on MC-38 cells [4]; [9]): efficiently bound | binding after pretreatment with anti-CRT antibodies (ecto-CRT on MC-38 cells [4]): significantly inhibited | binding to cells (ecto-CRT on MC-38 cells [4]; [10]): not

B2: CRT3LP: PASylated L-ASNase fused with CRT-targeting CRT3 monobody at N-terminus and PAS200 tag plus His6 tag at C-terminus (protein)
chain: MASVSDVPRDLEVVAATPTSLLISWKLGFFKRYYRITYGETGGNSPVQEFTVPGSKSTATISGLKPGVDYTITVYAVTGQPMYGQPMYPISINYRTSGGGGSGGGGSEFLPNITILATGGTIAGGGDSATKSNYTAGKVGVENLVNAVPQLKDIANVKGEQVVNIGSQDMNDDVWLTLAKKINTDCDKTDGFVITHGTDTMEETAYFLDLTVKCDKPVVMVGAMRPSTSMSADGPFNLYNAVVTAADKASANRGVLVVMNDTVLDGRDVTKTNTTDVATFKSVNYGPLGYIHNGKIDYQRTPARKHTSDTPFDVSKLNELPKVGIVYNYANASDLPAKALVDAGYDGIVSAGVGNGNLYKTVFDTLATAAKNGTAVVRSSRVPTGATTQDVEVDDAKYGFVASGTLNPQKARVLLQLALTQTKDPQQIQQIFNQYGSSGGGGSGGGGSASPAAPAPASPAAPAPSAPAASPAAPAPASPAAPAPSAPAASPAAPAPASPAAPAPSAPAASPAAPAPASPAAPAPSAPAASPAAPAPASPAAPAPSAPAASPAAPAPASPAAPAPSAPAASPAAPAPASPAAPAPSAPAASPAAPAPASPAAPAPSAPAASPAAPAPASPAAPAPSAPAASPAAPAPASPAAPAPSAPAAGSHHHHHH
tumor growth in mice treated with ICD-inducing drugs (MC-38 tumor): significantly inhibiting tumor growth | sudden death of mice (CT-26 tumor; 20 IU CRT3LP per injection, DOX-treated mice, by day 12): caused sudden death and 2 out of 3 and Two of the mice injected with 20 IU died | optimal therapeutic dose (CT-26 tumor; DOX-treated mice): 8 IU/injection/mouse | tumor suppression in mice treated with GEM (CT-26 tumor): not and did not enhance tumor suppression | tumor growth in mice treated with ICD-inducing drugs (CT-26 tumor): significantly inhibiting tumor growth | immunofluorescence staining, binding to cells (ecto-CRT on MC-38 cells [1]; [5]): only bound | immunofluorescence staining, binding to cells (ecto-CRT on MC-38 cells [1]; MC-38 cells treated with GEM): not | binding to cells (ecto-CRT on CT-26 cells [2]; [6]): efficiently bound | binding after pretreatment with anti-CRT antibodies (ecto-CRT on CT-26 cells [2]): significantly inhibited | binding to cells (ecto-CRT on CT-26 cells [2]; [7]): not | cell viability (CT-26 cells): barely affected | reduction of viability of cells pretreated with DOX and MTX, higher extent (CT-26 cells): 2 fold | reduction in cell viability in cells pretreated with GEM (CT-26 cells): not observed | immunofluorescence staining, binding to cells (ecto-CRT on CT-26 cells [3]; [8]): only bound | immunofluorescence staining, binding to cells (ecto-CRT on CT-26 cells [3]; CT-26 cells treated with GEM): not | binding to cells (ecto-CRT on MC-38 cells [4]; [9]): efficiently bound | binding after pretreatment with anti-CRT antibodies (ecto-CRT on MC-38 cells [4]): significantly inhibited | binding to cells (ecto-CRT on MC-38 cells [4]; [10]): not
